Assay [1] deals with T1, Bcl-2/iso1 (Homo sapiens, UniProt P10415, DEL35-91/INS34DVEENRTEAPEGTESE/R110G/T96A).
T1 construct: His tag (pET28b, thrombin-cleavable) (N, cleaved yes); made in house; host or cells: E. coli BL21(DE3)
Description: Competitive fluorescence polarization assay, peptide binding to Bcl-2/iso1. The method, then: A competitive fluorescence polarization assay was used to measure the affinity of various peptides for Bcl-2/iso1 (see Table 2) or Bcl-2/iso2 (see Table 3). Competitive assays were performed using one of the following three fluorescein-labeled peptides as a probe:
(§1) All titrations were automated by means of an Abbott clinical diagnostics instrument (IMx, FPIA mode) modified with a special protocol for performing titrations. A complete two-fold dilution series, comprised of twenty separate 2 mL samples, was obtained by delivering appropriate individual aliquots to the first seven tubes, aliquots from an intermediate diluted stock for the next seven, and one more intermediate dilution for the final six. […] The final DMSO concentration for all samples never exceeded 1%. Twenty 1.8 uL samples were prepared without fluoresceinatedpeptide and read as blanks. To each tube, 0.2 uL of a Bcl-2, fluoresceinatedpeptide mixture was added; the tubes were incubated for 5 min at 35° C., and then read for total intensity and polarization.

For assay [2], the target named is T1, Bcl-2/iso1. Kind of assay: Fluorescence polarization titration of fluoresceinated probe peptides with Bcl-2/iso1. It counts as binding. The method, then:
(3) (FITC)-AAQRYGRELRRMSDEFVR(SEQ ID NO:19). The dissociation constants of these fluoresceinated peptides from Bcl-2/iso1 are ˜20 nM, ˜50 nM, and ˜100 nM, respectively.
as §1, with “The concentrations of the” for “The final”, “DMSO stock solutions of the peptide were 1–4 mM as determined by Trp absorbance (O.D. 280 nm), Tyr absorbance (O.D. 293), or amino acid analysis. […]” for “DMSO concentration for all samples never exceeded 1%.”, “polarization. […]” for “polarization.”
Steady state polarization data can be analyzed to extract the fractions of bound and free fluorescent ligand owing to the linear additivity of their anisotropy values, weighted by their respective fractional intensities (Lakowicz, JR. Principles of Fluorescence Spectroscopy. New York, N.Y.: Plenum Press (1983)). […]
A general note: Polarisation of emitted light reports the rotation of a fluorescent probe.

Assay [3] has as its target mutant Bcl-2/iso1 protein (Bcl-2/iso1 residues 1-34, Bcl-xL loop residues 29-44, Bcl-2/iso1 residues 92-207; plasmid C) (human). Description: competitive fluorescence polarization, displacement of a fluorescein-labeled peptide probe from Bcl-2 (340 nM).
For assay [4], the target named is mutant Bcl-2/iso2 protein (plasmid C construct with Ala96 to Thr96 and Gly110 to Arg110; plasmid D) (human). Described as above.
The target of assay [5] is mutant Bcl-2/iso1 protein (Bcl-2/iso1 residues 1-34, Bcl-xL loop residues 29-44, Bcl-2/iso1 residues 92-207; plasmid C) (human). Kind of assay: fluorescence polarization, direct titration of the fluoresceinated peptide with Bcl-2.

Residues, ends and D or L forms follow the SMILES beside them. Primed or numbered codes have the meaning given here. No end group written: not given here. *: point of attachment. 5FAM = O=C1OC2(c3ccc(O)cc3Oc3cc(O)ccc32)c2ccc(C(=O)*)cc21; FITC′ = fluorescein isothiocyanate

T1 sequence (P10415 with tags, fused parts or gaps with the stated changes): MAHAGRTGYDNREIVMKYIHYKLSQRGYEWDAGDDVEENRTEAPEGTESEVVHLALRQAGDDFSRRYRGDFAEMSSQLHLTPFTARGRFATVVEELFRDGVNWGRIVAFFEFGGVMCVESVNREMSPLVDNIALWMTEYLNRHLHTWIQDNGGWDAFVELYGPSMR

Regarding NLWAAQRYGRELRRMSDEFVD [SEQ ID NO:36], the dissociation constant (Kd) (as a rule, the free concentration of one partner at which half of the binding sites on the other are occupied at equilibrium, for simple one-to-one binding) in assay [1] turned out to be 2330 nM.

With `CSCC[C@H](NC(=O)[C@H](CCCNC(=N)N)NC(=O)[C@H](CCCNC(=N)N)NC(=O)[C@H](CC(C)C)NC(=O)[C@H](CCC(=O)O)NC(=O)[C@H](CCCNC(=N)N)NC(=O)CNC(=O)[C@H](Cc1ccc(O)cc1)NC(=O)[C@H](CCCNC(=N)N)NC(=O)[C@H](CCC(N)=O)NC(=O)[C@H](C)NC(=O)[C@H](C)NC(=O)[C@H](C)NC(=O)[C@H](C)NC(=O)[C@H](C)NC(=O)c1ccc2c(c1)C(=O)OC21c2ccc(O)cc2Oc2cc(O)ccc21)C(=O)N[C@@H](CO)C(=O)N[C@@H](CC(=O)O)C(=O)N[C@@H](CCC(=O)O)C(=O)N[C@@H](Cc1ccccc1)C(=O)N[C@H](C(=O)N[C@@H](CC(=O)O)C(=O)N[C@@H](CO)C(=O)N[C@@H](CCCCN)C(=O)N[C@@H](CCCCN)C(=O)O)C(C)C` (5FAM-AAAAAQRYGRELRRMSDEFVDSKK-OH; C-terminus assumed), the Kd in assay [2] was approximately 50 nM.

Molecule “AAAAAQRYGRELRRMSDEFVDSFKK [SEQ ID NO:17]” showed a Kd in assay [1] of 74 nM.

Molecule “NLAAAQRYGRELRRMSDEFVDSFKK [SEQ ID NO:23]” returned a dissociation constant Kd in assay [1] of 39 nM.

In assay [1], “NLWAAQRYGRELRRMSDEFVDSAKK [SEQ ID NO:27]” yielded a Kd of 397 nM.

The molecule `CSCC[C@H](NC(=O)[C@H](CCCNC(=N)N)NC(=O)[C@H](CCCNC(=N)N)NC(=O)[C@H](CC(C)C)NC(=O)[C@H](CCC(=O)O)NC(=O)[C@H](CCCNC(=N)N)NC(=O)CNC(=O)[C@H](Cc1ccc(O)cc1)NC(=O)[C@H](CCCNC(=N)N)NC(=O)[C@H](CCC(N)=O)NC(=O)[C@H](C)NC(=O)[C@H](C)NC(=O)[C@H](C)NC(=O)[C@H](C)NC(=O)[C@H](C)NC(=O)c1ccc2c(c1)C(=O)OC21c2ccc(O)cc2Oc2cc(O)ccc21)C(=O)N[C@@H](CO)C(=O)N[C@@H](CC(=O)O)C(=O)N[C@@H](CCC(=O)O)C(=O)N[C@@H](Cc1ccccc1)C(=O)N[C@H](C(=O)N[C@@H](CC(=O)O)C(=O)N[C@@H](CO)C(=O)N[C@@H](Cc1ccccc1)C(=O)N[C@@H](CCCCN)C(=O)N[C@@H](CCCCN)C(=O)O)C(C)C` (5FAM-AAAAAQRYGRELRRMSDEFVDSFKK-OH) gave a dissociation constant (Kd) in assay [2] of approximately 20 nM.

With “NLWAAQRYGRELRRMSDEFVDSFAK [SEQ ID NO:28]”, in assay [1], the Kd was determined as 123 nM.

With “NLWAGQRYGRELRRMSDEFVDSFKK [SEQ ID NO:25]”, the Kd in assay [1] came to 105 nM.

In the case of “NLPAAQRYGRELRRMSDEFVDSFKK [SEQ ID NO:31]”, binding in assay [1] was characterised by a dissociation constant (Kd) of 54 nM.

The molecule “NLWGAQRYGRELRRMSDEFVDSFKK [SEQ ID NO:24]” showed a dissociation constant Kd in assay [1] of 159 nM.

Regarding “NAWAAQRYGRELRRMSDEFVDSFKK [SEQ ID NO:22]”, the Kd in assay [1] is 75 nM.

As for “NLWAAQRYGRELRRMSAEFVDSFKK [SEQ ID NO:34]”, in assay [1], binding was put at a Kd of 762 nM.

For the molecule “NLWAAQRYARELRRMSDEFVAAFKK [SEQ ID NO:32]”, in assay [1], the affinity, expressed as Kd, was 186 nM.

As to QRYGRELRRMSDEFVDSFKK [SEQ ID NO:35], binding in assay [1] was put at a Kd of 711 nM.

Take “NLWAAQRYGRELRRMSDEFVDAFKK [SEQ ID NO:26]”: in assay [1], the Kd was determined as 26 nM.

In assay [1], “NLWAAQRYGREARRMSDEFVDSFKK [SEQ ID NO:33]” returned a Kd of 7480 nM.

As to “GGGAAQRYGRELRRMSDEFVDSFKK [SEQ ID NO:30]”, in assay [1], binding was put at a Kd of 63 nM.

In assay [1], “ALWAAQRYGRELRRMSDEFVDSFKK [SEQ ID NO:21]” gave an equilibrium dissociation constant (Kd) of 211 nM.

In assay [1], “NLWAAQRYGRELRRMSDEFVDSFKA [SEQ ID NO:29]” registered a Kd of 22 nM.

B1: peptide … (SEQ ID NO:27) (peptide)
peptide: NLWAAQRYGRELRRMSDEFVDSAKK
Take B1: the Kd in assay [3] is 397 nM.

B2: peptide … (SEQ ID NO:24) (peptide)
peptide: NLWGAQRYGRELRRMSDEFVDSFKK
Molecule B2 registered a dissociation constant Kd in assay [3] of 159 nM.

B3: peptide … (SEQ ID NO:20) (peptide)
peptide: NLWAAQRYGRELRRMSDEFVDSFKK
On to B3, for which the Kd in assay [4] was 8 nM; in assay [3], 14 nM.

B4: peptide … (SEQ ID NO:30) (peptide)
peptide: GGGAAQRYGRELRRMSDEFVDSFKK
Consider B4, for which the Kd in assay [3] stood at 63 nM.

B5: peptide … (SEQ ID NO:26) (peptide)
peptide: NLWAAQRYGRELRRMSDEFVDAFKK
Regarding B5, the Kd in assay [3] came out at 26 nM.

B6: peptide … (SEQ ID NO:31) (peptide)
peptide: NLPAAQRYGRELRRMSDEFVDSFKK
Take B6: the Kd in assay [3] came to 54 nM.

B7: peptide … (SEQ ID NO:28) (peptide)
peptide: NLWAAQRYGRELRRMSDEFVDSFAK
In assay [3], B7 gave a dissociation constant Kd of 123 nM.

B8: peptide … (SEQ ID NO:37) (peptide)
peptide: GQVGRQLAIIGDDINR
B8: in assay [4], the dissociation constant Kd came to 1600 nM.

B9: peptide … (SEQ ID NO:17), not labeled (peptide)
peptide: AAAAAQRYGRELRRMSDEFVDSFKK
Consider B9, for which the dissociation constant Kd in assay [3] stood at 74 nM.

B10: (5-FAM)-… (SEQ ID NO:17), fluorescein-labeled peptide probe (1) (peptide)
peptide: 5FAM-AAAAAQRYGRELRRMSDEFVDSFKK
Take B10: the Kd in assay [5] is 20 nM.

B11: (5-FAM)-… (SEQ ID NO:18), fluorescein-labeled peptide probe (2) (peptide)
peptide: 5FAM-AAAAAQRYGRELRRMSDEFVDSKK
B11: the dissociation constant Kd in assay [5] came out at 50 nM.

B12: peptide … (SEQ ID NO:35) (peptide)
peptide: QRYGRELRRMSDEFVDSFKK
Turning to B12, the Kd in assay [3] is 711 nM.

B13: peptide … (SEQ ID NO:33) (peptide)
peptide: NLWAAQRYGREARRMSDEFVDSFKK
Turning to B13, the dissociation constant Kd in assay [3] was 7480 nM.

B14: (FITC)-… (SEQ ID NO:19), fluorescein-labeled peptide probe (3) (peptide)
peptide: {FITC′}-AAQRYGRELRRMSDEFVR
In assay [5], B14 registered a Kd of 100 nM.

B15: peptide … (SEQ ID NO:34) (peptide)
peptide: NLWAAQRYGRELRRMSAEFVDSFKK
For the molecule B15, the Kd in assay [3] is 762 nM.

B16: peptide … (SEQ ID NO:21) (peptide)
peptide: ALWAAQRYGRELRRMSDEFVDSFKK
Regarding B16, in assay [3], the Kd stood at 211 nM.

B17: peptide … (SEQ ID NO:32) (peptide)
peptide: NLWAAQRYARELRRMSDEFVAAFKK
In assay [3], B17 returned an equilibrium dissociation constant (Kd) of 186 nM.

B18: peptide … (SEQ ID NO:29) (peptide)
peptide: NLWAAQRYGRELRRMSDEFVDSFKA
For the molecule B18, in assay [3], the Kd came to 22 nM.

B19: peptide … (SEQ ID NO:25) (peptide)
peptide: NLWAGQRYGRELRRMSDEFVDSFKK
As to B19, in assay [3], the Kd came out at 105 nM.

B20: peptide … (SEQ ID NO:22) (peptide)
peptide: NAWAAQRYGRELRRMSDEFVDSFKK
B20: the Kd in assay [3] worked out at 75 nM.

B21: peptide … (SEQ ID NO:36) (peptide)
peptide: NLWAAQRYGRELRRMSDEFVD
With B21, the Kd in assay [3] worked out at 2330 nM.

B22: peptide … (SEQ ID NO:23) (peptide)
peptide: NLAAAQRYGRELRRMSDEFVDSFKK
In assay [3], B22 came in with a dissociation constant Kd of 39 nM.

Values taken from US7226992B1, “Mutant Bcl-2 proteins and uses thereof” (Abbott Laboratories, priority 2000, dated 2007).
